{"source": "patent US20150010495A1", "about": "(GLYCOTOPE, published 2015)", "biological_target": "T1, […]n, n = 5 (100-mer), non-glycosylated (human)", "T1 construct": "non-glycosylated MUC1 peptide with five tandem repeats in series", "assay": "peptide ELISA, OD 492 nm; limit of the class, member by Table 2; reference: 20-mer", "data": [{"binder": "HMFG-1 (antibody, V domains shown) VH: QVQLVQSGAEVKKPGASVKVSCKASGYTFSAYWIEWVRQAPGKGLEWVGEILPGSNNSRYNEKFKGRVTVTRDTSTNTAYMELSSLRSEDTAVYYCARSYDFAWFAYWGQGTLVTVSS VL: DIQMTQSPSSLSASVGDRVTITCKSSQSLLYSSNQKIYLAWYQQKPGKAPKLLIYWASTRESGVPSRFSGSGSGTDFTFTISSLQPEDIATYYCQQYYRYPRTFGQGTKVEIKR", "values": [{"measurement": "ratio of the optical density 100-mer/20-mer", "value": "> 3"}]}]}
